The domain aggregation screens of Martell et al. (2025)

Assay: soluble fraction after stress (log2 fold change); higher = more stays soluble; pooled small domains, quantitative proteomics
Settings: stress: 75 degC
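Also: 20 min heating vs room temperature control held 20 min.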

Sequence	soluble fraction (log2)
HMKYYIYQGVGASGELTKIAEVTDQKTYTVTGLQAKTTYRFAVSSYNGLRESTKSNIVTVTT	-0.134
HMLAAAVVVYATDKVNVRAEASETADVIGQLEAGSQTTRLEDKDGWSRIDYSNGTQGYMKSEFLSTEAPT	0.347
HMLADEPTGALDSKTSVQIMALLTEIAQDRLVIMVTHNPELADEYATRIVNLRDGVISDDSDPFNP	-0.0933
HMLAEEAFNKQAATAGYVYRDGSYHPAASVAQYDAMPRNYRTNTMAQELSRSQVESQLQQSQ	0.752
HMLAGKTYEVQTESGGKWTLVASYNVKSQAIQQAQALLESHKYSGVKVIAESDRKGEEVIFNEQSEVT	-0.0725
HMLALKSGQVVVGTIIRRLDNTTAMLRIGNQLFETSFAKGLPKSNHILLRYDAMQGNRFIFTMVE	-0.635
HMLANLNKELQNDAALLKQKAQGNSNLLAKIQDVEQQMKQVNTSSASDEAKAKELQTLQRKLTAYKKALA	-0.0577
HMLAVSVDKDGKVYIQDSETAVDAVTAKLRAISGNNSEIRIFVRGDADVNYGRIMEIMGVINAAGFRKVAL	-0.111
HMLDEIAGQKVRVLEEINNSEGTGKVMYRGVEWMARSVDDAVMAKDSIVTVQSISGVKLMVT	-0.184
HMLDEKAVRQYLLNTLENSEIKMDRQAIDLFLRLTDLDLSKMMRELQKILLYGQEQEVITVKEIEQ	-0.779
HMLDGFEVGMTVMKKSGTEIGFTGWPSFADKDELPIIERIDTSDSTLLLKFKDMSWWIKASLVEPS	-3.55
HMLDLPEISARIMEVFETKDRATISELSKLTGTNINTIKKHLSSLVENNYLIKHGKTRGAWYTKST	-0.126
HMLDLVSIGKRIKAERQKNGLTQEALAERIEVSAHYVYELERGLKAMSVPILLRMSEVLHTSTDYLLF	-3.34
HMLDNHPQSKKIRALWLEMAAAGVVRDSSEQALALWVKRETGISALRWLSNEQASSVIEKLKKWQRRAAG	-1.47
HMLDPKVFVGKAGINEGIAKLLLQAFDKADLVKVRFTAERDVMETQMQELARLTGSEVIGNVGRTATF	-0.0412
HMLEAMDSDEAAKVIEQIVNERADFVRSKGMGAIGPLMGPVMGALRGKVDGKQANELLTAAIKKLL	0.334
HMLEASVYTAEKSGDRLDAFLAEQAGITRSYAQKLIEGGQVTLGGVVPKKNYKLSAGEQVELILPEN	0.0466
HMLEKVLDNHIHKLRLQHKISQQELADAIGVSRKTISTVETGRFTPSVVIALKIAAHFSVSVEQVFTL	-1.14
HMLEPEVLDLIGQVKSVHHFSVTQSHQLEKLVRHAHTLGFEIAELKSLLASSPNAKSLLSSLDQKLEPLRM	-1.86
HMLEQEQFESKLLKAINNINETQRIAFLMHRIDGKKYAEIASELNISVKAVEKRIHLALIELKKEIENF	-0.747
HMLEQISDINILSGYAKEVIAENPKTVSDYLSGKAAAFQALVGQVMKKTGGRGNPVIIQEILKRLIHKK	-0.0597
HMLERKPVLVASRDLPALAVIGKDDLSVELLRTAPVGSYDRPEALLGKRVWVAVPAGSILSAATLEP	-0.366
HMLERPLKLKSHYVSTIYEKVAVQYSEGEEKKSVMGTLIEVNQDTIVLDDRGTIIEIPFKSITRAKTVF	-3.6
HMLETLVYPNPTTDKILLSSPVDYHLFSLKGELVLEGRGSSIEVSQLSKGVYFLNTKTQTFKIIK	-0.62
HMLGARSLNEAVARNLPQILAKYQLIHIAGKNGFNPELQGRGYVQYEYVDTELKDLMALADIVVSR	-1.52
HMLGERIKQIRKQKKMTQTDVATGIITKSMLSMIENGKATPSLPALQAIARRLQVTVEELML	-2.55

Sequence	soluble fraction (log2)
HMLGFELVGIRGNNPESTIIILERDDYRLVEQGQNINSSVIFSHIDGSRAYFFDGQTYTFLDI	-2.78
HMLGITEGSLVRVIRSPNFGKIGTVAELPAELRMMESETMVRIAIVEIEGTNFEIPRSNLEVLET	-1.6
HMLGKEVVRAYNISYAIDDKGSLQGDLTAALTGLIPLSKPPVLDQRNRSLYVTATPEQHKDVAALLAKL	-0.238
HMLGSGSKEQQLVILNNILERQVQAFNLQGGQEYPMVTLKNFYNTLSKMIENAGLKNVENYFVNPDVGKQM	-0.392
HMLHMKAALGELMSIPGMRSELAGTLFDRGYTSLAQLRAATLDDLERVNGLERADARRIHDFLRKS	-0.251
HMLHQSLVVNAASGRVTVSLDIVPDEDNPYAVLRATDDSDEPLAQVRVAPSFKLNRASALAWIESQFARP	-2.34
HMLHSEDATVVRQAIPLLERHVDAATVAVARRNLAQLEQFGRYPRRNQALGRISNPAENAYLRAER	0.0695
HMLIDQYPYSIIYRLIPHGRSNAVPAAQIVGLTKLDERSIRIYVEAMRREGHIIASSSKGYYFPASIEE	-3.2
HMLIGLNETESLVLDALIANPMRIDQVSAMLKKDVATTLKFLGGLSVRGLVETLFGGRFAPTKIALHARS	0.0549
HMLIIMNSDATKEQVDHVTSRVREAGFKDHIMPGAGKVAIGVTGTGDYDQTKLHLEILPGVFKIMRITK	-0.816
HMLIPADETEAKVLSVLSREPLHVDEIRNQAGLPIEKISATLALMELKGMVRQVGGMNYVSV	-0.044
HMLKDKLSDKDFDFYKNKIQIQLQGNPTELKELVRRFSSTEEQQILKTIDYMLDNGFLRIDEDNMIYWK	-0.0419
HMLKDQSIAQLEKNLDDLKGLMRKMFGSSDVPKITKMISDIESSLANFNQSKANKLIVQTTNYISSKL	-0.664
HMLKEDSAYELGLRIFDQALNDYGTSFIDLKEDEYKKVLSIYGYSNPRQLIINIGLGNVIPHLLARDITE	-1.34
HMLKEGIKEKINQLQVYADKNDNIIWYDRVVDILSDKDDSVTDEMIEAAIRTLEEAGISVERKQ	0.0727
HMLKEGQYSPNHFHWHKMEDIINRGGGTLLIRVYNSLPDEEIDRESDVTVHMDGVTRTVPAGTQLRLE	-0.124
HMLKETGVITASVLNVREDIGTSSNIVAQLKKGMEVNILESRAIAGSETWYRIDAGSIKGWIFGDYI	-3.37
HMLKFGLSQRELQILALLPTDEPLSILAKSLFISESTLKTHLTHIYRKLGVKNRLQAINVARKAGLLK	-1.59
HMLKHSKQRDAIEQFLATRYDHPTAETVYMNLREEYPKLSLATVYRNLSLLAELGNIQKIPTGNGPDRFDG	-0.343
HMLKIAENIYQRRKEKNITQEELADFMMVTKASVSKWETGQSYPDILLLPKLATFFNVTVDELIGYEPQ	-2.72
HMLKIVRSREEVESRLYTIYGNVKGRRLYNFYLSLIIDGLDIVKARTSKNVYYTNIRNLKNAGIDFSQKIN	-2.28
HMLKPKDLHLGDSVRVLSLNLKGTVSSLPDTKGFLFVQMGIMRSKLHISDLQLIDEPVITAP	-2.23
HMLLFSVADIVKRSKRILSFKTDAELAAYFGVSRSTLSNWIARNSIDFPLLLSKMKDVDYTWLILGKGTPG	-3.97
HMLLLHINQMGVTEFSQLELNHVRSWLANLQIKGAARSSITRRVVSVRAFTYWGAKNGWLASDIGRDLVAP	-0.459
HMLLRVGGLVKDGSVRTDNDLGIKFIIEDNLAEVSVLYNGILPDLFREGQGVIAEGKFIDNIFIANEIVA	-0.682
HMLLSHTAQREGELLTFLRGELALSSGLVKRLKWQNAFFLDGAPVHTNARVKPGQEITVRIEE	-1.59

Sequence	soluble fraction (log2)
HMLLTEETLPQLKQIVDEFPYFQIARMLYLKNLAVLNDIRFSVELKKMSIYVPDRRKLFTLIEGE	0.044
HMLLTLPEDIITMVRQGTLSAGHARVLAGLESDEMKMTLARQTITNEWSVRQLENAVALMRKS	-0.906
HMLLTPLEETRLVIEEIVIPQKLTIDLLPRSSAIRKLQHELITHYQLRGTSVGNEPNRRLRIYP	-0.121
HMLMNADVLVKYQEDHWIVISEKASQASDTFDKKEQAVERAKEIAKNKNSSVKVYKQDGTLQDTFDYS	0.351
HMLMSDEENAEFTKLYRQLVFKLHPDLNPNQTKDEENLWHKVQMAYKGGDLEEMRSLAIILDAQ	0.0885
HMLMTGSLQTKHGKYYVVVRIPDGLGNTKAKWINTGIPTDGNNKRKAQQRRIEILTELEENKD	-2.47
HMLMYAQDEKEEASNNIPYRLLHMSFTKEQKAELQRAMDVRVPKDIILSYFYPDTPVARMMEIRRQYESA	-0.814
HMLNDKLQTLFSLFPAVDKDLKKKGVTRQILWEQYKRNHPDGVGRSQFNYYYAQWKDQVNPT	-1.02
HMLNDMYAVMEIRGQGGELIAKLINQDGSPFYVKKGTTLQSGHVIDEITTTYVRAEKAGAKDYLYF	-0.939
HMLNDTGAIRAAVEEVLAANEKSVNEYKGGKTQAFQYLIGQSMRALRGKAPAQEVTKLLKELLG	-0.564
HMLNQIGVSQKEFDQIHTAIKIALKTSSLTPTGITEKLPKFPPEKTADILRWMADNKEVLLNSEEKYELKT	-0.297
HMLPAGAAAPLEDGSAPEGYTVKGNADSGLYHEPDGRWYDATVAEFWFKTAADAEAAGFRKAGS	0.149
HMLPDGEAFVKVNTSLNIRTGPWGQIVGWFHNNDKVKIIGRDGDWYKISHNGQTRYIHSRYVSSSR	-1.2
HMLPDHAPITMRQLAMLHVAKNKLDLTDEDYRSLLLLYGGVESSKQLNQEGLRRVLDRFKELGFEP	-0.45
HMLPDLLNGRVIPSPEKVIRARLNRGVWELLVQWVGRAPSDATWENLLEFKSAYPSVQLEDALF	-1.97
HMLPDLQKAIDTFLYEVDSRINTSFEELIDKLNSKEEAVAFFLALLEAVRWGFIKAEQESNSINIKK	-0.898
HMLPDSQLMKEATAWFMRQAADDFSGAERRRLDAWRAQSPAHARAYHQVQALWNAPELQQAAAR	-0.113
HMLPEGIENGDVLTRTDALDYRKWLVTGNQKRIFASTASFYGENFNYSEVKAVSDRVLDAIPDGEPV	-0.0413
HMLPFGHTRLEDGTIQEIPEQIALARKVAEMYKAGFPVMQISIKTEGLLTPRQIYGLMNHWGVKR	-1.3
HMLPIKLDLEIGENVRVVSGPLENFVGSVVSFDTDQQKVKLVVEMFGRKTPVELDFIEVQKLR	-2.24
HMLPIMDRLITAGISINTAKKWVDKFGDKRIKQNLAYSLAKQKEGKVKTNFVGYLAKAIEEDWGSGWE	-1.5
HMLPKAERREQLMAVARSVFAEQGYHTTSMEIIAETAGVSKPLLYQHFPSKLDLYLALLDAGID	-1.8
HMLPKILVMDGKVNKNALTTLGKDEEWVKKVLRNHNIHSIKDVLLALYDTKGKFQYQLYDDYEK	-0.248
HMLPKNITNTIDHWIQKFPQGKQRSAIIAALHAVQHHNKGFLTNDLLNQVADYIDVPKMNVYEVATFYSM	0.169
HMLPLIEVPAVTGKYLTKAKSALKDAGLDTGDIKRVEHEEHGENYVLKQDPPAGTKVPFGTTVSLTVVAP	0.427
